Assay results published in publication PMC3295803.

What was measured:
Assay in all cases: pressure-induced dissociation followed by light scattering; recombinant oligomers 0.2 mg/ml in 25 mM Tris pH 7.5, 25°C, 1 to 3000 bar in steps of 270 bar and back; without or with 2-mercaptoethanol
[1] = biological target: AgB recombinant subunit rAgB8/1 (Echinococcus granulosus)
[2] = biological target: AgB recombinant subunit rAgB8/2 (Echinococcus granulosus)
[3] = biological target: AgB recombinant subunit rAgB8/3 (Echinococcus granulosus)

AgB recombinant subunit rAgB8/1
decrease of the light scattering signal after compression [1]: 60%

AgB recombinant subunit rAgB8/2
decrease of the light scattering signal after compression [2]: 30%

AgB recombinant subunit rAgB8/3
decrease of the light scattering signal after compression [3]: 30%
